Measured values taken from patent publication US20030187247A1.

Assays:
[1] = molecular target: gp120 derived from the HIV-1 strain LAI (Repligen) (HIV-1 strain LAI) (UniProt P03377); assay: SPR (BIAcore), gp120 immobilized
[2] = molecular target: HXBc2 mature gp120 expressed by COS-1 cells (HIV-1 (HXBc2 clone)) (UniProt P04578)
[3] = molecular target: recombinant gp120 of HIV-1 strain IIIB (HIV-1 strain IIIB) (UniProt P04578); assay: inhibition ELISA, free gp120 titrated against plate-bound gp120
[4] = molecular target: gp120 derived from the HIV-1 strain LAI (Repligen) (HIV-1 strain LAI) (UniProt P03377); assay: SPR (BIAcore), kon/koff
[5] = molecular target: gp120 derived from the HIV-1 strain LAI (Repligen) (HIV-1 strain LAI) (UniProt P03377); assay: BIAcore sandwich, same Fab injected twice (negative control); competitor: b6
[6] = molecular target: gp120 derived from the HIV-1 strain LAI (Repligen) (HIV-1 strain LAI) (UniProt P03377); assay: BIAcore sandwich, Fab 2 on gp120 held by Fab 1; competitor (Fab 1): b13
[7] = molecular target: gp120 derived from the HIV-1 strain LAI (Repligen) (HIV-1 strain LAI) (UniProt P03377); assay: BIAcore sandwich, Fab 2 on gp120 held by Fab 1; competitor (Fab 1): b12
[8] = molecular target: multimeric HXBc2 envelope glycoprotein complex on the transfected COS-1 cell surface (HIV-1 (HXBc2 clone)) (UniProt P04578); assay: Fab on transfected COS-1 cells, immunoprecipitation
[9] = molecular target: HXBc2 gp120 mutant NO V1/V2 (HIV-1 (HXBc2 clone of strain LAI)) (UniProt P04578); assay: capture ELISA (D7324)
[10] = molecular target: gp120 derived from the HIV-1 strain LAI (Repligen) (HIV-1 strain LAI) (UniProt P03377); assay: BIAcore sandwich, Fab 2 on gp120 held by Fab 1; competitor (Fab 1): b6
[11] = molecular target: HXBc2 mature gp120 expressed by COS-1 cells (HIV-1 (HXBc2 clone)) (UniProt P04578); assay: Fab on radiolabeled COS-1 cells, lysis, precipitation, gel densitometry
[12] = molecular target: gp120 derived from the HIV-1 strain LAI (Repligen) (HIV-1 strain LAI) (UniProt P03377); assay: BIAcore sandwich, same Fab injected twice (negative control); competitor: b12
[13] = molecular target: recombinant gp120 of HIV-1 strain IIIB (HIV-1 strain IIIB) (UniProt P04578); assay: SPR (BIAcore)

Substance | koff [1] | kon [1] | Ka [2] | IC50 [3] | Ka [4] | response (RU), background [5] | response (RU), background subtracted [6] | response (RU), background subtracted [7] | Fab concentration at saturation [8] | Fab/reference serum binding ratio [9] | response (RU), background subtracted [10] | excess of gp120 over gp160 immunoreacted [11] | response (RU), background [12] | Ka [13]
Fab b6 | 0.00016 s⁻¹ | 16000 M⁻¹ s⁻¹ | < 6e+06 M⁻¹ | 1 nM | 9.7e+07 M⁻¹ | 38 RU | 21 RU | 17 RU | > 150 µg/mL | 1.48 | 0 RU | – | – | –
Fab b12 | 0.00043 s⁻¹ | 45000 M⁻¹ s⁻¹ | 3e+07 M⁻¹ | 1 nM | 1.1e+08 M⁻¹ | – | 22 RU | 0 RU | 100 µg/mL | 0.23 | – | > 50% | 17 RU | –
b12 IgG1 (antibody) | – | – | – | – | – | – | – | – | – | – | – | – | – | 1.3e+09 M⁻¹
